Assay results reported in patent publication US11918610B2, “Methods for diagnosis and treatment of type 1 diabetes” (priority 2018, dated 2024).

System: non-obese diabetic mice (NOD/ShiLtJ) colonized with E. coli VT-55
Format: in vivo
Settings: NOD mice gavaged with E. coli VT-55; regimen of each agent as in Table 3; positive control (no therapy) 16, negative controls 24 and 26
Procedure: For this study non-obese diabetic mice (NOD/ShiLtJ) 8 weeks old (Jackson Laboratory, Bar Harbor, Me., USA) were housed and bred under specific pathogen-free conditions. Mice were maintained in a temperature controlled (22±2° C.) animal facility with a 12 hour light/dark cycle and were allowed free access to food and acidified drinking water. To increase the efficacy of E. coli transfer, all animals were exposed to antibiotic treatment before the transfer of E. coli. Starting at three weeks of age, recipient mice were treated with ampicillin (1 g/L) in the drinking water for the next 4 weeks. The bacterial strains used: E. coli strain VT-55—a wild-type, amyloid-producing strain. E. coli VT-55 bacteria were administered with oropharyngeal gavage to 8 week old female mice at 10^8 CFU, 2 times a week. Acceleration of T1D development was accessed by measuring blood glucose in a manner consistent with diabetes monitoring, using a FreeStyle Lite meter and test strips (Abbott). Blood glucose was evaluated weekly via a tail vein. T1D development was defined as occurring after two consecutive blood glucose measurements of at least 250 mg/dL.
TTR was expressed in E. coli VT-243. The TTR protein was precipitated from the supernatant of a 48 hour culture of E. coli VT-243 after centrifugation (12,000×g, 20 minutes 4° C.) of the lysed cells in the gradient 40-90% ammonium sulfate fraction (1.8-3.6 M). The precipitate that contained TTR was dialyzed overnight against 10 mM sodium phosphate buffer, pH 7.5, 100 mM KCl, 1 mM EDTA. The same volume of 200 mM sodium acetate buffer (pH 4.4, 100 mM KCl, 1 mM EDTA) was added to achieve a final pH of 4.5, and the mixture was then incubated for 18 hours at 37° C. Following centrifugation (45 min, 30,000×g, 4° C.), the supernatant was gel filtrated (Superdex 75) to elute phosphate buffer.
To develop nanoparticles with siRNA, we used cholesterol, distearoyl-sn-glycerol-3-phosphocholine (DSPC) and PEG2000-DMG (all Sigma). Nanoparticles were prepared by dissolving the 306013 lipidoid, cholesterol, DSPC, and PEG2000-DMG with final molar ratio of 50:38.5:10:1.5 in a 90% ethanol enriched with 10% 10 nM sodium citrate. Particles were formed following vortexing of equal volumes of siRNA solution with the lipid solution and subsequent dilution in PBS. Mice were orally gavaged with nanoparticles loaded with siRNA at a dose of 5 mg/kg.
The EcVac vaccine consisted of conjugates containing the 0-antigens of serotypes 06 of E. coli VT-55. […] The suspension for iv administration was made in TBS, (pH 7.4; 25 mmol Tris, 137 mmol NaCl, 2.8 mmol KCl).
Balb/c mice were immunized (10 μg) intraperitoneally and boosted (1 μg) subcutaneously with the E. coli amyloid isolated as previously described. Splenocytes were removed under sterile conditions, washed and hybridized to murine plasmacytoma parent cell line SP2/OAg14 using 40% polyethylene glycol and a spleen cell to plasmacytoma cell ratio of 5:1. Cells were plated in 96-well microtiter (Sarstedt) plates at 100,000 cells/per well with DMEM supplemented with 10% fetal bovine serum. Following 48h, cells were supplemented with hypoxanthine (100 PM) containing medium. After three washes with PBS-1% BSA, the presence of specific antibody binding was detected by ELISA. Serotype specific wells were cloned. Pristine-primed BALB/c mice were IP injected with 1×10^7 hybridoma cells. Ascites fluid was collected 14 days later, centrifuged (5000 g, 20 min, Eppendorf) and stored at −80° C. before use.

B1: T7 Endonuclease I: T7 Endonuclease I (New England Biolabs) (protein, UniProt P00641 1-149, looked up)
Endonuclease I: MAGYGAKGIRKVGAFRSGLEDKVSKQLESKGIKFEYEEWKVPYVIPASNHTYTPDFLLPNGIFVETKGLWESDDRKKHLLIREQHPELDIRIVFSSSRTKLYKGSPTSYGEFCEKHGIKFADKLIPAEWIKEPKKEVPFDRLKRKGGKK
Median T1D incidence 50% (weeks): 22 weeks
